Here are results for 41 sequences from the nanobody polyreactivity screen of Harvey et al. (2022).

The nature of the data set: yeast display, Sf9 membrane polyspecificity reagent, FACS + sequencing; frameworks hold sequencing errors. A digest of the protocol: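 In a synthetic yeast display library (Saccharomyces cerevisiae BJ5465), nanobody expression was induced with galactose for 36–48 hours. FACS gates were set low and high (top ~1%) using anti-HA fluorescence for expression and streptavidin fluorescence for binding of the Sf9 membrane reagent. Each polyreactivity label is drawn from the gate of origin.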
For the sequence “QVQHEESGGGLVQAGGSLRLSCAASGSIFYDNGMGWYRPAPGKERELVAAISRGGTTNYADSVKGRFTISRDKAKNTVYFQMNSLKPEDTAVYYCNADTRFTYWGSWYDYWGQGTQVTVSS”, the “polyreactivity (PSR sort gate)” value was “low polyreactivity”.

In the case of “QVQHEESGGGLVQAGGSLRLSCAASGSIIAYNAMGWYRQAPGKERELVAAITDSGGSTFDADSVKGRFTFSRDYGMITVYLQMNSLIPEDTAVYYCATSGDRLVWGQGTQVTVSS”, the “polyreactivity (PSR sort gate)” value is reported as “low polyreactivity”.

In the case of “QVQHEESGGGLVQAGGSLRLSCASSGLIFKFSAMGWYRQAPGKERELVAAITSRGGSTYYADSVKGRFTISRDNAKNTVYFQMNSLKPEDTEVYYCAADVRTQHYNAQYDYWGQGTQVTVSA”, the “polyreactivity (PSR sort gate)” value is “high polyreactivity”.

“QVQHEETGGGLVQAGGSLRLSCAASGSTYRKNSMGWYRPAPGKERAFVAAISRSGGSTYYADSVKGRFTISRDNAKNTVYLQMNSLKPEDTAVYYCAASYYQHQYSYELGDYWGQGTQVTVSS”: the “polyreactivity (PSR sort gate)” value is recorded as “low polyreactivity”.

For the sequence “QVQHEKSRGALVQAGGSLRLSCAASGSTVEKYTMGWYREAPGKVRELVAAISKSGGSTYYADSVKGRFTISRDNAMNTVYLQMNSLNPEDTAVDYCAALQYPRAGFDYWGQGTQVTVSS”, the “polyreactivity (PSR sort gate)” value is on record as “high polyreactivity”.

Consider “QVQHGESGGGLVQAGGSLRLTCAASGSIFKYNAMGWYRQAPGKERELDAAISLSGASRSYADSVKGRFTISRVNAKNTVYLQMNSLKPEDTAVYYCNAYYWYYSTRKYYYWGQGTQETVSS”, for which the “polyreactivity (PSR sort gate)” value was “high polyreactivity”.

For “QVQHLESGGGLVQAGGSLRLSCAASGFTFGYYAMGWYRQAPGKEREFVATISYGTGSTYYADSVKGRFTISRDNAKNTVYLQMNSLKPEDTAVYYCNADTWPGEYNGYFSGAYDYWGQGTQVTVSS”, the “polyreactivity (PSR sort gate)” value is reported as “high polyreactivity”.

As to “QVQHVESAGGLVQAGGILRLSCAASGRIFYPYAMGWYRQAPGKERELVAAISSSGGSTYYADSVKGRFTISRDNAKNTVSLQMNSLKPEDTAFYYCNKDFQYYPRIFGYWGQGTQVTVSS”, the “polyreactivity (PSR sort gate)” value is recorded as “high polyreactivity”.

As to “QVQHVESAGGLVQAGGILRLSCHASGFTIHAYVLGWYRQAPGKERELVAAISSGGSTYYADSVKGRFTISRDNAKNTGYLQMNSLKPEATSVYYCAAAYPYYWHLDFWGQGSQVTVSS”, the “polyreactivity (PSR sort gate)” value was “low polyreactivity”.

Consider “QVQHVESAGGLVQAGGSLRLSCAASGITFKVYAMGWYRQAPGKERELVATISRSDAGTSYADSVKGRFTISRDNAKNTVYLQMNSLKPEDTAVYYCAATYVSKKTHTKYDYWGQGTQVTVSS”, for which the “polyreactivity (PSR sort gate)” value is recorded as “high polyreactivity”.

“QVQHVESAGGLVQEGGSLRLSCAASGSTSVKYPMGWYRQAPGKERELVAAIRKRGDSTYYADSVKGRFTISRDNAKNTVYLQMNSLKPEDTAVYYCAAQYLRGRGYWGQGTQVTVSS”: the “polyreactivity (PSR sort gate)” value is on record as “low polyreactivity”.

As for “QVQHVESGGALVQAGGSLRLSCAASGRIFSPNAMGWYIQAPGKEWDLVAAISSGGSTYADSVKGRFTISRDNAKNTVYLQMNSLKPEDTAVYYCARTYQWTVAGRYRAYHAGYYWGQGTQVTVSS”, the “polyreactivity (PSR sort gate)” value was “high polyreactivity”.

Consider “QVQHVESGGGIVQAGGSLRLSCAASGFTFWYYAMGWYRQAPGKERELVAVINTSGGSTYADSVKGRFTISRDNAKNTVFLQMNSLKPEDTAVYYCNKDFIYGYDAASYRPEYDYWGQGTQVTVSS”, for which the “polyreactivity (PSR sort gate)” value is given as “low polyreactivity”.

For “QVQHVESGGGIVQAGGSLRLSCAASGITFYGNTMGWYRPARGKERELVARISSGGSTNYADSVKGRFTISREKAKNSGYLQMNSLKPEDTAVYYCAVKQYWYIWSGYGYDYWGQGTQVTVSS”, the “polyreactivity (PSR sort gate)” value is “high polyreactivity”.

For the sequence “QVQHVESGGGIVQAGGSLRLSCAASGSTFSGYAMGWYRQAPGKERELVASISSGGRTTYADSVKGRFTISRDNAKNTVYLQMNSLKPEDTAVSYCAKRIRPGYARLYSWGQGTQVTVSS”, the “polyreactivity (PSR sort gate)” value is “high polyreactivity”.

Consider “QVQHVESGGGLGQAGGSLRLSCAASGLTFSVYAMGWSRQAPGKERELYAAISYSGVSTYADSEKGRFTISRDNAKNTVYLQMNSLKPEDTAVYYCNARWVREGYRRWYDYWGQGTQVTVSS”, for which the “polyreactivity (PSR sort gate)” value is “low polyreactivity”.

In the case of “QVQHVESGGGLLQAGGSLRLSCAASGRIFWINAMGWYIQAPGKERELVATISSGSTSYADSVKGRFTITRDNAKNTVYLQMNSLKPEDTAVYYCAVSLRYTRSGAYDYWGQGTQVTVSS”, the “polyreactivity (PSR sort gate)” value is “low polyreactivity”.

For “QVQHVESGGGLVHAGGSLRLSCAASGRIFGGYAMGWYRQPPGKDREFVATISRSGSSTYYADSVKGRFTISRDNAKNTVYLQMNSLKPEDTAVYYCAAVIRRPNQWYWWTNSDYWGQGTQVTVSS”, the “polyreactivity (PSR sort gate)” value is reported as “high polyreactivity”.

Consider “QVQHVESGGGLVHAGGSLRLSCAASGSIASYAMGWYRHATGKEKELVAGISWSGGSTYYADSVKGRFTISRDNAKNNVYLQMISLKPEDTAVYYCAARRFCPNRDSRMGYWGQGTQVTVSS”, for which the “polyreactivity (PSR sort gate)” value was “high polyreactivity”.

Take “QVQHVESGGGLVHAGGSLRLSCASSGSIFYPYAMGWYRQAQGKERELVAAIRNGGSTYYTDSVKGRFTISRDNAKNTVYLQMNSLKPEDTAVYYCAASVRRRHPFEYWGQGTQVTVSS”: the “polyreactivity (PSR sort gate)” value was “high polyreactivity”.

“QVQHVESGGGLVKAGGSLRLSCAASGFTFGVYAMGWYRLAPGKERELVAAISRRGTSTYYADSVKGRFTISRDNAKNTVYLQMNSLKPEDTAVYYCNARRYQVTVDHWGQGTQVTVSS”: the “polyreactivity (PSR sort gate)” value is listed as “high polyreactivity”.

With “QVQHVESGGGLVQAGCSLRLCCAASGSTFGGYAMGWSSQAHGNERELVAGITIAVCSTYYADSVKGRFTISRDNAKNTVYLQMNSLKPEDTAVYYCAADGLSWYNYWGPGTQVTVSS”, the “polyreactivity (PSR sort gate)” value is recorded as “high polyreactivity”.

Take “QVQHVESGGGLVQAGCSLRLSCAASGSIFSSYAMGWYRQAPGKERELVAAISQSGGDTYYADSVKGRFKISRDNAKNTVYLQMNSLKPEDTAVYYCAASVWFYPMDYWGQGTQVTVSS”: the “polyreactivity (PSR sort gate)” value was “low polyreactivity”.

“QVQHVESGGGLVQAGCSLRLSCAASGSIFWRYAMGWSRQAHGKEREFVAAISGSGVRTSYADSVKGRFTISRDNAKNTVYLQMNSLIPEDTAVYYCAARVSYRYTSAAYEYWGQGTQVTVSS”: the “polyreactivity (PSR sort gate)” value is “high polyreactivity”.

With “QVQHVESGGGLVQAGGRLRLSCAASGSIFGSNAMGWYRQEPGKERELVAVISRRGGSTYYADSVKGRFTISRDNAKNTVYLQMNSLKPEDTAVYYCADRVWYPRYDYWGQGTQVTVSS”, the “polyreactivity (PSR sort gate)” value is “high polyreactivity”.

Consider “QVQHVESGGGLVQAGGSHRLSCAASGSIYWWNAMGWYRQAPGKERELVAAISFSGGSTYYADSVKGRFTISRDNAKNTVYLQMNSLKPEDTAVYYCAAEAYDDYDYWGQGTQVTVSS”, for which the “polyreactivity (PSR sort gate)” value is “low polyreactivity”.

Consider “QVQHVESGGGLVQAGGSLLLSCAASGSIFGGNAKGWYRQAPGKERELVAVITSRGGSTYYADSVKGRFTISRDNAKNTVSLQMNSLKPEDTAVYYCNKRYLNRREGTDDYWGQGTQVTVSS”, for which the “polyreactivity (PSR sort gate)” value is recorded as “high polyreactivity”.

Consider “QVQHVESGGGLVQAGGSLPLSCAASGFIFTSNSMGWYRQAPGKESEFVAAITSGGITYYADSVKGRFTISRDNAKNTVYLQMNSLKPEDTAVYYCAAVLSYQTPKYYRWRYGYWGQGTQVTVSS”, for which the “polyreactivity (PSR sort gate)” value is “low polyreactivity”.

Turning to “QVQHVESGGGLVQAGGSLPLSCAASGITFSKYAMGWYRQAPGKERELVAAITRSGGSTYYADSVKGRFTISRDNAKNTVYLQMNSLKPEDTAVYYCAAKRRERYGQTYGYWGQGTQVTVSS”, the “polyreactivity (PSR sort gate)” value is reported as “high polyreactivity”.

Regarding “QVQHVESGGGLVQAGGSLRLICAASGITFYFNAMGWYRQAPGKERELVAAISRPGGSTYYADSVKGRFTISRDNAKNTVYLQMNSLKPEDTAVYYCAAEAYFELSGGGLEYGYDYWGQGTQVTVSS”, the “polyreactivity (PSR sort gate)” value was “high polyreactivity”.

For the sequence “QVQHVESGGGLVQAGGSLRLICAASGLTSYYAMGSYRQAPGKEREIVAAIDGSDGNTYYADSVKGRYTISRDNAKNTVYLQMNSLKPEYTAVYYCNAETVLYWWSWENDYWGQGTQVTVSL”, the “polyreactivity (PSR sort gate)” value is given as “high polyreactivity”.

As to “QVQHVESGGGLVQAGGSLRLICAASGSTFGDNAKGRYREAPGKERELVAVITSDTSTYYADSVKGRFTISRDNAKNTVYLQMNSLKPEDTAVYYCAADWGGLWFWYEYWGQGTQVTVSS”, the “polyreactivity (PSR sort gate)” value is listed as “low polyreactivity”.

For the sequence “QVQHVESGGGLVQAGGSLRLRCAASGTTFSSNAMGWSRHAPGKERELVASITRGGSTSADSVKGRFTISRDNAKNTVYLQMNSLKPEDTAVYYCAKSVTGWRGLWYTPRNYYWGQGTQVTVSS”, the “polyreactivity (PSR sort gate)” value is listed as “high polyreactivity”.

Consider “QVQHVESGGGLVQAGGSLRLSCAASESILNRYVMGWYRQATGKERELVCTYYADSVKVRFTISRDNAKNTVYLQMNSLKPEDTAVYYCAADVYLYYAGSRYYYWGQGTQVTVSS”, for which the “polyreactivity (PSR sort gate)” value is recorded as “low polyreactivity”.

For the sequence “QVQHVESGGGLVQAGGSLRLSCAASGFIFARNAMGWYRQARGKERELVAVISTRGRTYYADSVKGRFTFSRDNAKNTVYLQMNSLKPEDTAVYYCNADKVIGYDYWGQGTQVTVSS”, the “polyreactivity (PSR sort gate)” value is listed as “high polyreactivity”.

Turning to “QVQHVESGGGLVQAGGSLRLSCAASGFIFPVYAMGWYRQAPGKDRELVAAISSGGITNYADSVKVRFTISRDNAKNTVYLQMNSLKPEDTAVYYCAARDYVRFGLYDYDYWGQGTQVTVSS”, the “polyreactivity (PSR sort gate)” value was “low polyreactivity”.

Consider “QVQHVESGGGLVQAGGSLRLSCAASGFIFRWYAMGWYRQAPGKERELVAAITTSGGITYYADSVKGRFTISRDNAKNTVYLQMNSLKPEDTAVYYCNRSPWYGPWHPNSFGSGDYWGQGTQVTVSS”, for which the “polyreactivity (PSR sort gate)” value is recorded as “low polyreactivity”.

As to “QVQHVESGGGLVQAGGSLRLSCAASGFIFRYYTMGLYRQAPGKERELVATISNSGRTYYADSVKGRFTISRDNAKNTVYLQMNSLKPEDTAVYYCNALRASTTALWGGYWGQGTQVTVSS”, the “polyreactivity (PSR sort gate)” value is reported as “high polyreactivity”.

Turning to “QVQHVESGGGLVQAGGSLRLSCAASGFIFTHYTMGWSRQAPGKESELVAVISSAGSTYYADSVKGRFTISRDNAKNTVYLQMNSLKPEDTAVYYCNKVVRQVHGRGLDYWGQGTQVTVSS”, the “polyreactivity (PSR sort gate)” value is “high polyreactivity”.

With “QVQHVESGGGLVQAGGSLRLSCAASGFIFTSYAMGWYRQAPGKERELVAVISASDGSTYYADSVKGRFTISRDNAKNTVYLQMNILKPEDTAVYYCNATEYLGGGGIVHVEFGYWGQGTQVTVSS”, the “polyreactivity (PSR sort gate)” value is recorded as “low polyreactivity”.

As for “QVQHVESGGGLVQAGGSLRLSCAASGFTFGVNAMGWYRQAPGKERELVAVITSGGNTYYADSVKGRYTISRDNAKNTVYLQMNSLKPEDTAVYYCAADLSYTSYATRYQGDYWGQGTQVTVSS”, the “polyreactivity (PSR sort gate)” value is “low polyreactivity”.
